Data taken from patent US11667714 (MERUS N V, dated 2023).

How the values were obtained:
[1] = molecular target: PD-L1 on CHO cells expressing PD-L1 and a T cell activator (Promega) (UniProt Q9NZQ7 19-290); experiment: cell-based or functional assay
[2] = molecular target: T1, PD-L1 on activated human T cells (human, UniProt Q9NZQ7 19-290); experiment: FACS on anti-CD3 activated human T cells, goat anti-human IgG-PE, MFI [upper panel]
T1 construct: whole, on cells

[3] = molecular target: T2, PD-1 on activated human T cells (human, UniProt Q15116 25-288); experiment: FACS on anti-CD3 activated human T cells, goat anti-human IgG-PE, MFI [lower panel]
T2 construct: whole, on cells
T2 sequence (Q15116 25-288): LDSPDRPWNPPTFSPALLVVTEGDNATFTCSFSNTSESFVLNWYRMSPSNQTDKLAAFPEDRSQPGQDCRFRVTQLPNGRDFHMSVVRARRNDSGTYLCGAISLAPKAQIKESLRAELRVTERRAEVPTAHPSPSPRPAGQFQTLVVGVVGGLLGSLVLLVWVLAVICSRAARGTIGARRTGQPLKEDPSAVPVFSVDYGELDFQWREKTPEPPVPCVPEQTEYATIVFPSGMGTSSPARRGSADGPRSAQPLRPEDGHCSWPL

Sequence of PD-L1 on CHO cells expressing PD-L1 and a T cell activator (Promega) (Q9NZQ7 19-290): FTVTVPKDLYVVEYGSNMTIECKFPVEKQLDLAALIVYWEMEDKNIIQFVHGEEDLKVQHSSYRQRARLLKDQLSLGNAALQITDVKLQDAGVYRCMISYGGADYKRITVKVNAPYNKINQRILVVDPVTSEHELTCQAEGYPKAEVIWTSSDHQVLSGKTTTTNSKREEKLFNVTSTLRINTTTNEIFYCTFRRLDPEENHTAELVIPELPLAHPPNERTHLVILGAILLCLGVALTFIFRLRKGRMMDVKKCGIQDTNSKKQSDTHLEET
T1 sequence (Q9NZQ7 19-290): as above

B1: MF5576xMF1337 PD-L1xTT bispecific IgG (PD-L1 monovalent) (bispecific antibody, V domains shown)
VH 1: QVQLVQSGSELKKPGASVKVSCKASGYTFTSHAMNWVRQAPGQGLEWMGWINPNTGNPTYAQGFTGRFVFSLDTSVSTAYLQISSLKAEDTAVYYCAIDRGYMSNWVFAEYFPHWGQGTLVTVSS
VL: not shown
VH 2: not shown
Question: How did the “AUC (PD-1/PD-L1 blockade reporter assay, monovalent)” value (“AUC” below) [1] turn out when B1 was run?
Answer: 4.1

B2: MF5359xMF1337 PD-L1xTT bispecific IgG (PD-L1 monovalent) (bispecific antibody, V domains shown)
VH 1: EVQLVQSGAEVKKPGSSVKVSCKASGDTFNTYSITWVRQAPGQGLEWMGSIVPIFGTINNAQKFQGRVTITADKSANTAYMELSSLRSEDTAVYYCARDNTMVRGVDYYYMDVWGKGTMVTVSS
VH 2: not shown
VL: not shown
Question: How did the “AUC” value [1] turn out when B2 was run?
Answer: 3.9

B3: MF5557xMF1337 PD-L1xTT bispecific IgG (PD-L1 monovalent) (bispecific antibody, V domains shown)
VH 1: QVQLVQSGAEVKRPGSSVKVSCKASGGTFNTYSITWVRQAPGQGLEWMGGIIPVFGTSKYAQKFQDRVTITADKSTNTAYMELSSLRSEDTAVYYCARDPSFSSSSGWFDPWGQGTLVTVSS
VH 2: not shown
VL: not shown
Question: For B3, which “AUC” value [1] is on record?
Answer: 3.4

B4: MF5382xMF1337 PD-L1xTT bispecific IgG (PD-L1 monovalent) (bispecific antibody, V domains shown)
VH 1: EVQLVQSGAEVKNPGSSVKVSCKATGGTFNTYGTNWVRQAPGQGLEWMGGIIPIFGTANYAQKFQGRVTITADKSTTTAYMEVSSLRSEDTAVYYCARGGADMGTLDYWGQGTLVTVSS
VH 2: not shown
VL: not shown
Question: How did the “AUC” value [1] turn out when B4 was run?
Answer: 2.9

B5: PG7689 (antibody, V domains shown)
VH: QVQLVQSGAEVKKPGSSVRVSCKASGGTFNTYAINWVRQAPGQGLEWVGRIIPIFGTANYAQKFQGRVTISADKSTTTAYMELSSLRSEDTAVFYCAKDETGYSSSNFQHWGRGTLVTVSS
VL: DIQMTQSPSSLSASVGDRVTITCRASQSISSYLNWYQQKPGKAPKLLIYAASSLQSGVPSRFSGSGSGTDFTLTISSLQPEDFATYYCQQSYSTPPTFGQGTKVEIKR
notes: also called parental anti-PD-L1 IgG of MF6974xMF7689; MF7689 in bivalent IgG format
Question: With B5 as the binder, how does the “EC50 (read off the curve)” value [2] read?
Answer: ~0.04 µg/mL

B6: parental anti-PD-1 IgG PG7686 (antibody, V domains shown)
VH: QVQLVQSGAEVKKPGSSMKVSCKASGGSFSSAVISWVRQAPGQGLEWMGMIIPVFDTASYAKKFQGRVTITADKSTNTVYMELSRLRSEDAAVYYCARGTVEATLLFDYWGRGTLVTVSS
VL: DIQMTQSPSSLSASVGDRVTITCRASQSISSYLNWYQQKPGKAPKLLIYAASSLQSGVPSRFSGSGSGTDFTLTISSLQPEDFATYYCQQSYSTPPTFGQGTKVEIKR
notes: bivalent monospecific IgG; also called MF7686 in bivalent IgG format; copies: 2 + 2
Question: Which “EC50 (read off the curve)” value [3] does the source give for B6 here?
Answer: ~0.04 µg/mL

B7: MF6974 as a bivalent antibody (antibody, V domains shown)
VH: EVQLVESGGDLVQPGGSLRLSCAASGFTFNSYAMSWVRQAPGKGLEWVSTISGGGANIYYADSVKGRFTISRDNSKSTLYLQMNSLRAEDTAVYFCASPYGSGYFDVWGQGTLVTVSS
VL: not shown
notes: bivalent anti-PD-1 IgG; copies: 2 + 2
Question: How did the “EC50 (read off the curve)” value [3] turn out when B7 was run?
Answer: ~0.05 µg/mL
